Data on one substance can be found in paper PMC7587188.

In this experiment the target is B-Glucosidase. Briefly: ITC; 1 mM BSA in the syringe, 10 uL injections into 66 uM B-GLU in the cell; 25 °C; PBS pH 6; VP-ITC; fitted with AFFINImeter, independent sites approach (GoF = 50.81%).

pKd: −log10 of the molar value.

As to “Bovine Serum Albumin (from UniProt P02769 25-607) (natural protein)”, the Ka turned out to be 530000 M⁻¹, the pKd is 5.72, the dH is -0.26 kcal/mol and the stoichiometry N came out at 1.23.
